# Measured values reported in patent US20050181059A1, “Nanoparticulate therapeutic biologically active agents” (Spherics, Inc., priority 2003, published 2005).
# Experiments:
# [1] = in vivo
# Method: In a separate study, the bioavailability for non-encapsulated insulin was tested.
# [2] = SDS-PAGE stability following micronization; format: physicochemical; conditions: denaturing, non-reducing; resolubilized in 10 mM PBS
# [3] = BCA analysis of protein concentration of redissolved hIL-12; format: physicochemical; conditions: BCA assay, resolubilized in 10 mM PBS
# Method: Recombinant Human Interleukin-12 (hIL-112) was obtained from Genetics Institute and tBA from EM Science. hIL-12 (500 microliters at 2.79 mg/ml) was injected into tBA (5 ml). A fine precipitate formed immediately. The dispersion was rapidly frozen in liquid nitrogen (15 minutes) and the solvent removed by lyophilization for 48 hours. The resulting powder was visualized by SEM. The stability following micronization was assayed by SDS-PAGE (Invitrogen) and BCA (Pierce) assay of hIL-12 resolubilized in 10 mM PBS according to manufacturer's instructions.
# SDS-PAGE (denaturing, non-reducing) analysis was used to compare tBA-treated hIL-12 particles with the control stock, with and without lyophilization. […] This was confirmed by […] acid (BCA) analysis of protein concentration of hIL-12 redissolved after lyophilization alone, or after micronization followed by lyophilization. The lyophilized-only protein was 99% soluble, while the micronized protein was 71% soluble. Thus a disagreggating agent should be included to prevent aggregation when micronizing hIL-12 using tBA.
Substance,bioavailability [1],aggregation by SDS-PAGE [2],soluble protein after redissolving [3] [%]
Non-encapsulated insulin: non-encapsulated insulin tested for bioavailability in a separate study,less than 1%,–,–
lyophilized-only hIL-12: hIL-12 control stock redissolved after lyophilization alone,–,did not produce irreversible aggregation,99
"micronized hIL-12: Recombinant Human Interleukin-12 injected into tBA, frozen and lyophilized",–,"irreversibly denatured and aggregated into dimers, trimers, and aggregates too large to enter the gel",71
